Among the data in paper PMC7072561 are other values, retold here.

The conditions of this data set: ubiquitination at K63.

ubiquitin (HA-tagged): ubiquitin K63R: the other entry was “decreases”.
